Reference: PMC7901536 (Arteriosclerosis, thrombosis, and vascular biology, 2021)

T1: dimeric GPVI (GPVI extracellular domain fused by IgG-Fc), Q9HCN6
T1 chain: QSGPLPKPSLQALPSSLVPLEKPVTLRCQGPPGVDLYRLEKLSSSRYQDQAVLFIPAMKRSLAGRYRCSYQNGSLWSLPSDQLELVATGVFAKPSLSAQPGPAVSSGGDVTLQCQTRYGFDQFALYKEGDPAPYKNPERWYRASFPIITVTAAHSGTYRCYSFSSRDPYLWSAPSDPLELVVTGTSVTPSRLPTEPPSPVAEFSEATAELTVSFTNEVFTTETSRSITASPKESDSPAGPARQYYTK

T2: monomeric GPVI (His-tagged GPVI extracellular domain), Q9HCN6
T2 chain: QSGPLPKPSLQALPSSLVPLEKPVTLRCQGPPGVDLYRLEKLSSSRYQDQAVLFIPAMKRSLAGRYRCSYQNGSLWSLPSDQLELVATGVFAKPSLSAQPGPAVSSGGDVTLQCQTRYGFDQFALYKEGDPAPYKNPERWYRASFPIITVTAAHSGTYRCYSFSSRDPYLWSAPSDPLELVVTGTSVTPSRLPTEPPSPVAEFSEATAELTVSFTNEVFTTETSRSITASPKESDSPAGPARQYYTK

T3: dimeric GPVI (GPVI extracellular domain fused by IgG-Fc) (UniProt Q9HCN6 21-267, FITC label (in MST); biotin via NHS-LC-biotin (when immobilised in SPR))
T3 sequence (looked up): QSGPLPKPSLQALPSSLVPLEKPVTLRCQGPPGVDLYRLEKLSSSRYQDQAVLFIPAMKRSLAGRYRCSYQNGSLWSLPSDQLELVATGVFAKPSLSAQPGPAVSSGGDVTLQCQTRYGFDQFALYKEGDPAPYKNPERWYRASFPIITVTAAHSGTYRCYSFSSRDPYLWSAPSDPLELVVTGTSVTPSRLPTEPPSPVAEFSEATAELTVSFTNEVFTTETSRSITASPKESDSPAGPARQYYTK


Assays:
[1] = target: recombinant non-polymerising (NP) fibrinogen (UniProt P02671); experiment: SPR; NP-fibrinogen immobilised, then converted to fibrin with thrombin; GPVI dimer as analyte (additional SPR experiments in the supplemental methods)
[2] = target: non-polymerising (NP) fibrin (UniProt P02671); experiment: as above
[3] = target: recombinant fibrinogen αC fragment, C-terminal globular domain (Aα 368-610); experiment: SPR; biotinylated αC fragments Aα 221-391 (80 RU), 368-610 (120 RU), 221-610 (180 RU) on SA chip; dimeric GPVI as analyte up to 20 μM; 25 °C; 1:1 Langmuir
[4] = target: recombinant fibrinogen αC fragment, full-length (Aα 221-610); experiment: as above
[5] = target: monomeric GPVI (His-tagged GPVI extracellular domain) (UniProt Q9HCN6); experiment: MST; CRP-XL titrated into FITC-labelled GPVI monomer or dimer; read-out is the fall of the initial fluorescence (quenching); 1:1 model; hypothetical KD on the monomeric-equivalent molar concentration of CRP-XL
[6] = target: dimeric GPVI (GPVI extracellular domain fused by IgG-Fc) (UniProt Q9HCN6); experiment: as above
[7] = target: T1, dimeric GPVI (GPVI extracellular domain …); experiment: SPR; monomeric and dimeric GPVI immobilised as ligands; X-, D-, E-fragment or D-dimer as analytes up to 40 μM; 1:1 Langmuir
[8] = target: T2, monomeric GPVI (His-tagged GPVI …); experiment: as above
[9] = target: T1, dimeric GPVI (GPVI extracellular domain …); experiment: MST; fibrin(ogen) or fragments titrated into FITC-labelled GPVI monomer or dimer (10 μl of 50 nM mixed 1:1); 20 mM HEPES pH 7.5, 50 mM NaCl; 23 °C; 1:1 model
[10] = target: T3, dimeric GPVI (GPVI extracellular domain …); experiment: as above; settings: both partners purified
[11] = target: T3, dimeric GPVI (GPVI extracellular domain …); experiment: SPR; monomeric and dimeric GPVI immobilised as ligands; X-, D-, E-fragment or D-dimer as analytes up to 40 μM; 1:1 Langmuir; settings: both partners purified

Molecule | Kd [7] | Kd [9] | Kd [10] | Kd [11] | also measured
dimeric GPVI (GPVI extracellular domain fused by IgG-Fc) (from UniProt Q9HCN6 21-267) (Fc fusion) |  |  |  |  | Kd [1]: 0.127 µM; Kd [2]: 0.086 µM; Kd [3]: 2.3 µM; Kd [4]: 0.604 µM
cross linked collagen-related peptide (CRP-XL) |  |  |  |  | Kd [5]: 5 µM; Kd [6]: 0.603 µM
fibrinogen X-fragment (domain or fragment, modifications not checked) chain 1: ADSGEGDFLAEGGGVRGPRVVERHQSACKDSDWPFCSDEDWNYKCPSGCRMKGLIDEVNQDFTNRINKLKNSLFEYQKNNKDSHSLTTNIMEILRGDFSSANNRDNTYNRVSEDLRSRIEVLKRKVIEKVQHIQLLQKNVRAQLVDMKRLEVDIDIKIRSCRGSCSRALAREVDLKDYEDQQKQLEQVIAKDLLPSRDRQHLPLIKMKPVPDLVPGNFK chain 2: QGVNDNEEGFFSARGHRPLDKKREEAPSLRPAPPPISGGGYRARPAKAAATQKKVERKAPDAGGCLHADPDLGVLCPTGCQLQEALLQQERPIRNSVDELNNNVEAVSQTSSSSFQYMYLLKDLWQKRQKQVKDNENVVNEYSSELEKHQLYIDETVNSNIPTNLRVLRSILENLRSKIQKLESDVSAQMEYCRTPCTVSCNIPVVSGKECEEIIRKGGETSEMYLIQPDSSVKPYRVYCDMNTENGGWTVIQNRQDGSVDFGRKWDPYKQGFGNVATNTDGKNYCGLPGEYWLGNDKISQLTRMGPTELLIEMEDWKGDKVKAHYGGFTVQNEANKYQISVNKYRGTAGNALMDGASQLMGENRTMTIHNGMFFSTYDRDNDGWLTSDPRKQCSKEDGGGWWYNRCHAANPNGRYYWGGQYTWDMAKHGTDDGVVWMNWKGSWYSMRKMSMKIRPFFPQQ chain 3: YVATRDNCCILDERFGSYCPTTCGIADFLSTYQTKVDKDLQSLEDILHQVENKTSEVKQLIKAIQLTYNPDESSKPNMIDAATLKSRKMLEEIMKYEASILTHDSSIRYLQEIYNSNNQKIVNLKEKVAQLEAQCQEPCKDTVQIHDITGKDCQDIANKGAKQSGLYFIKPLKANQQFLVYCEIDGSGNGWTVFQKRLDGSVDFKKNWIQYKEGFGHLSPTGTTEFWLGNEKIHLISTQSAIPYALRVELEDWNGRTSTADYAMFKVGPEADKYRLTYAYFAGGDAGDAFDGFDFGDDPSDKFFTSHNGMQFSTWDNDNDKFEGNCAEQDGSGWWMNKCHAGHLNGVYYQGGTYSKASTPNGYDNGIIWATWKTRWYSMKKTTMKIIPFNRLTIGEGQQHHLGGAK | 9 µM | > 2 µM |  |  | Kd [8]: > 1000 µM
fibrinogen D-fragment (domain or fragment, modifications not checked) chain 1: VSEDLRSRIEVLKRKVIEKVQHIQLLQKNVRAQLVDMKRLEVDIDIKIRSCRGSCSRALAREVDLKDYEDQQKQLEQVIAKDLLPSR chain 2: DNENVVNEYSSELEKHQLYIDETVNSNIPTNLRVLRSILENLRSKIQKLESDVSAQMEYCRTPCTVSCNIPVVSGKECEEIIRKGGETSEMYLIQPDSSVKPYRVYCDMNTENGGWTVIQNRQDGSVDFGRKWDPYKQGFGNVATNTDGKNYCGLPGEYWLGNDKISQLTRMGPTELLIEMEDWKGDKVKAHYGGFTVQNEANKYQISVNKYRGTAGNALMDGASQLMGENRTMTIHNGMFFSTYDRDNDGWLTSDPRKQCSKEDGGGWWYNRCHAANPNGRYYWGGQYTWDMAKHGTDDGVVWMNWKGSWYSMRKMSMKIRPFFPQQ chain 3: KMLEEIMKYEASILTHDSSIRYLQEIYNSNNQKIVNLKEKVAQLEAQCQEPCKDTVQIHDITGKDCQDIANKGAKQSGLYFIKPLKANQQFLVYCEIDGSGNGWTVFQKRLDGSVDFKKNWIQYKEGFGHLSPTGTTEFWLGNEKIHLISTQSAIPYALRVELEDWNGRTSTADYAMFKVGPEADKYRLTYAYFAGGDAGDAFDGFDFGDDPSDKFFTSHNGMQFSTWDNDNDKFEGNCAEQDGSGWWMNKCHAGHLNGVYYQGGTYSKASTPNGYDNGIIWATWKTRWYSMKKTTMKIIPFNRLTIGEGQQHHLGGAK | 26 µM | > 20 µM |  |  | 
fibrinogen E-fragment (domain or fragment) chain 1: VVERHQSACKDSDWPFCSDEDWNYKCPSGCRMKGLIDEVNQDFTNRINKLKNSLFEYQK chain 2: KVERKAPDAGGCLHADPDLGVLCPTGCQLQEALLQQERPIRNSVDELNNNVEAVSQTSSSSFQYMYLLK chain 3: YVATRDNCCILDERFGSYCPTTCGIADFLSTYQTKVDKDLQSLEDILHQVENK |  |  | > 20 µM | 51 µM | 
D-dimer (degradation product of FXIIIa cross-linked fibrin) (domain or fragment, cross-linked by FXIIIa (chain and residues not stated)) chain 1: VSEDLRSRIEVLKRKVIEKVQHIQLLQKNVRAQLVDMKRLEVDIDIKIRSCRGSCSRALAREVDLKDYEDQQKQLEQVIAKDLLPSR chain 2: DNENVVNEYSSELEKHQLYIDETVNSNIPTNLRVLRSILENLRSKIQKLESDVSAQMEYCRTPCTVSCNIPVVSGKECEEIIRKGGETSEMYLIQPDSSVKPYRVYCDMNTENGGWTVIQNRQDGSVDFGRKWDPYKQGFGNVATNTDGKNYCGLPGEYWLGNDKISQLTRMGPTELLIEMEDWKGDKVKAHYGGFTVQNEANKYQISVNKYRGTAGNALMDGASQLMGENRTMTIHNGMFFSTYDRDNDGWLTSDPRKQCSKEDGGGWWYNRCHAANPNGRYYWGGQYTWDMAKHGTDDGVVWMNWKGSWYSMRKMSMKIRPFFPQQ chain 3: KMLEEIMKYEASILTHDSSIRYLQEIYNSNNQKIVNLKEKVAQLEAQCQEPCKDTVQIHDITGKDCQDIANKGAKQSGLYFIKPLKANQQFLVYCEIDGSGNGWTVFQKRLDGSVDFKKNWIQYKEGFGHLSPTGTTEFWLGNEKIHLISTQSAIPYALRVELEDWNGRTSTADYAMFKVGPEADKYRLTYAYFAGGDAGDAFDGFDFGDDPSDKFFTSHNGMQFSTWDNDNDKFEGNCAEQDGSGWWMNKCHAGHLNGVYYQGGTYSKASTPNGYDNGIIWATWKTRWYSMKKTTMKIIPFNRLTIGEGQQHHLGGAK |  |  | > 20 µM | 28 µM | 
